Measurements as given in patent US20230135471A1, “UBIQUITIN VARIANTS WITH IMPROVED AFFINITY FOR 53BP1” (Integrated DNA Technologies, Inc., priority 2021, published 2023).

Assays:
[1] = molecular target: T1, fragment of 53BP1 (a.a. 1221-1718) (Homo sapiens, UniProt Q12888); assay: BACTH two-hybrid pooled screen in E. coli, FACS sorting of GFP positive cells and NGS enrichment of i53 amino acid changes; type: cell-based; settings: i53 (SEQ ID NO: 2) background; for Rep 1 Enrichment / Rep 2 Enrichment: log2 enrichment of amino acid change in GFP positive vs input, normalised to synonymous changes; for Average Enrichment / Experiment 1 - high selection pressure Average Enrichment / Experiment 2-low selection pressure Average Enrichment: average of Rep 1 and Rep 2; for Average Enrichment: log2 enrichment; for Experiment 1 - high selection pressure Average Enrichment / Experiment 2-low selection pressure Average Enrichment: log 2 enrichment; for Experiment 1 - high selection pressure Rep 1 Enrichment / Experiment 2-low selection pressure Rep 1 Enrichment: replicate 1; for Experiment 1 - high selection pressure Rep 1 Enrichment / Experiment 1 - high selection pressure Rep 2 Enrichment / Experiment 2-low selection pressure Rep 1 Enrichment / Experiment 2-low selection pressure Rep 2 Enrichment: enrichment = log 2 of positive/input read count ratio normalised to synonymous changes; for Experiment 1 - high selection pressure Rep 2 Enrichment / Experiment 2-low selection pressure Rep 2 Enrichment: replicate 2
T1 construct: a fragment of 53BP1 (a.a. 1221-1718); expressed in transfected cells; host or cells: E. coli DHM1
Source text: (§1) In order to identify mutations that improve the affinity of i53 for 53BP1, the bacterial adenylate cyclase two-hybrid system (BACTH system) was used to screen for interaction between the two proteins. This method makes use of a B. pertussis calmodulin-dependent adenylate cyclase toxin. The catalytic domain of the toxin can be separated into two fragments (T18 and T25) that are able to associate in the presence of calmodulin but have minimal activity in its absence. If bait and prey proteins fused to T18 and T25 interact, then the catalytic activity is restored and cAMP is produced. In E. coli, cAMP binds to catabolite activator protein (CAP) that acts as a transcriptional activator for several genes. By expressing these fusion proteins in an E. coli strain that lacks endogenous adenylate cyclase and naturally lacks calmodulin, cAMP regulated protein expression can be used as a readout of bait-prey interaction. We engineered the screen so that eGFP will be expressed under the control of a cAMP-regulated promoter. The coding sequence for a fragment of 53BP1 (a.a. 1221-1718) containing the i53 interacting regions and i53 were cloned into T18 and T25 adenylate cyclase expression plasmids such that fusion proteins of each would be expressed. If a Ubv interacts with 53BP1, the T18 and T25 fragments will be brought together, adenylate cyclase activity will be restored, cAMP will be produced, and some portion of the bacterial population will be GFP positive.
A plasmid library was made consisting of Ubv-adenylate cyclase fragment fusion protein plasmids that had on average a single codon within the i53 coding region exchanged for a random NNK codon. Plasmids were transformed into DHM1 cells that lack endogenous adenylate cyclase and contain the plasmid for expression of the 53BP1 fragment fused to one of the adenylate cyclase fragments. Expression of eGFP was used as a readout of bait-prey interaction using fluorescence activated cell sorting (FACS) to sort for GFP positive bacteria. Plasmid DNA was isolated from both the sorted GFP positive bacteria (Positive) and from the original pre-sort population (Input) and was sequenced using NGS. Counts were merged for mutations that result in the same amino acid change using Enrich2 [25]. Enrichment was calculated as enrichment=log 2((read count for an amino acid change in the positive population/read count for an amino acid change in the input)/(synonymous change read count in the positive population/synonymous change read count in the input)). […] For each experiment, DHM1 cells were transformed with the Ubv fusion protein plasmid library in two separate replicates using a gene pulser (Bio-Rad). The i53-adenylate cyclase fragment fusion protein (published i53 peptide, SEQ ID NO:2) plasmid was also introduced separately as a control to estimate selection pressure. Cells were then grown and sorted using FACS and GFP positive cells were collected. Two separate experiments were conducted on separate days using different levels of selection pressure resulting in a different percent GFP positive for the i53 population (i.e. for cells that express published i53 peptide (SEQ ID NO:2) fused to one of the adenylate cyclase fragments).
(§2) There was a high degree of correlation between the two experiments and between replicates (FIG. 2). From these screens, about 230 amino acid changes were identified for which the average enrichment was positive for at least one of the experiments (Table 1). […] To validate that the amino acid changes identified from the pooled screen are reproducible on an individual basis, 24 amino acid changes identified from this screen were introduced individually into the i53 fusion protein plasmid and tested by flow cytometry for their effect on the percent positive population relative to i53 (FIG. 3). There was a strong correlation between the enrichment measured from the pooled screen and the percent reporter positive cells when mutations were screened individually.

[2] = molecular target: T1, fragment of 53BP1 (a.a. 1221-1718); assay: Individual two-hybrid screen of amino acid changes, percent GFP (reporter) positive cells by flow cytometry; type: cell-based; parameters: key to Dunnett's Multiple Comparison Summary: NS means not significant; *, **, ***, **** reflects qualitative measure of the strength of association the Ubv has with 53BP1 compared to the similar association of i53 with 53BP1.; *, **, ***, **** reflects qualitative measure of the strength of association the Ubv has with 53BP1 compared to the similar association of i53 with 53BP1.; *, **, ***, **** reflects qualitative measure of the strength of association the Ubv has with 53BP1 compared to the similar association of i53 with 53BP1.; *, **, ***, **** reflects qualitative measure of the strength of association the Ubv has with 53BP1 compared to the similar association of i53 with 53BP1; settings: for Dunnett's Multiple Comparison Summary: comparison i53 vs. i53 + amino acid change; for Percent GFP Positive Rep 1: replicate 1, amino acid change in i53 fusion protein plasmid; for Percent GFP Positive Rep 2: replicate 2; for Percent GFP Positive Rep 3: replicate 3
Source text: as §1, §2

[3] = Experiment 1 - high selection pressure
[4] = Experiment 2 - low selection pressure

T1 sequence (Q12888 1221-1718): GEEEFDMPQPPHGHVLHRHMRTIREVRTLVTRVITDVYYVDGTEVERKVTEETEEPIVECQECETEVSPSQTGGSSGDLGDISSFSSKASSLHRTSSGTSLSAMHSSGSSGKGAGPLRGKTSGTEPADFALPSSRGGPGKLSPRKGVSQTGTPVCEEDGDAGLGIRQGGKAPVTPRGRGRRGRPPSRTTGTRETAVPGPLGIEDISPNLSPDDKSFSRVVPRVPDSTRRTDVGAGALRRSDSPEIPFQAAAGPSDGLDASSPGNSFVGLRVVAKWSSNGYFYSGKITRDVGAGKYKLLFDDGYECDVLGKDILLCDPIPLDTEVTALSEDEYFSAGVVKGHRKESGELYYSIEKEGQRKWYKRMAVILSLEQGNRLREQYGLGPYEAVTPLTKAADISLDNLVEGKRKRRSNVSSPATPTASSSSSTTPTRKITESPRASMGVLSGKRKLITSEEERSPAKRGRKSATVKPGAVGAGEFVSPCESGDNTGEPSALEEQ

Row | Substance | Rep 1 Enrichment [1, 3] | Rep 2 Enrichment [1, 3] | Average Enrichment [1, 3] | Rep 1 Enrichment [1, 4] | Rep 2 Enrichment [1, 4] | Average Enrichment [1, 4] | Dunnett's Multiple Comparison Summary [2] | Percent GFP Positive Rep 1 [2] [%] | Percent GFP Positive Rep 2 [2] [%] | Percent GFP Positive Rep 3 [2] [%] | Experiment 1 - high selection pressure Average Enrichment [1] | Experiment 1 - high selection pressure Rep 1 Enrichment [1] | Experiment 1 - high selection pressure Rep 2 Enrichment [1] | Experiment 2-low selection pressure Average Enrichment [1] | Experiment 2-low selection pressure Rep 1 Enrichment [1] | Experiment 2-low selection pressure Rep 2 Enrichment [1]
1 | H68M: i53 with amino acid change H68M | – | – | – | – | – | – | *** | 28.6 | 23.5 | 28.3 | 2.28 | 2.53 | 2.04 | 1.28 | 0.99 | 1.58
2 | I61L: i53 with amino acid change I61L | 1.10 | 1.02 | 1.06 | 0.75 | 0.59 | 0.67 | ns | 15.9 | 17.6 | 17.2 | – | – | – | – | – | –
3 | K29M: i53 with amino acid change K29M | 1.72 | 1.48 | 1.60 | 1.23 | 0.57 | 0.90 | ns | 23.9 | 16.5 | 17.8 | – | – | – | – | – | –
4 | K48T: i53 with amino acid change K48T | 1.20 | 1.08 | 1.14 | 0.84 | 0.66 | 0.75 | ns | 16.9 | 14 | 14.5 | – | – | – | – | – | –
5 | L67K: i53 with amino acid change L67K | 2.08 | 1.93 | 2.01 | 1.40 | 0.39 | 0.89 | ns | 24.2 | 11.2 | 21.5 | – | – | – | – | – | –
6 | S49L: i53 with amino acid change S49L | 0.85 | 1.15 | 1.00 | 0.97 | 0.80 | 0.88 | ns | 18.8 | 13.6 | 17.7 | – | – | – | – | – | –
7 | V26I: i53 with amino acid change V26I | 0.99 | 1.25 | 1.12 | 0.96 | 0.70 | 0.83 | ns | 20.9 | 14.2 | 12.3 | – | – | – | – | – | –

The remaining lines, values ahead:

Row | Rep 1 Enrichment [1, 3] | Rep 2 Enrichment [1, 3] | Average Enrichment [1, 3] | Rep 1 Enrichment [1, 4] | Rep 2 Enrichment [1, 4] | Average Enrichment [1, 4] | Dunnett's Multiple Comparison Summary [2] | Percent GFP Positive Rep 1 [2] [%] | Percent GFP Positive Rep 2 [2] [%] | Percent GFP Positive Rep 3 [2] [%] | Experiment 1 - high selection pressure Average Enrichment [1] | Experiment 1 - high selection pressure Rep 1 Enrichment [1] | Experiment 1 - high selection pressure Rep 2 Enrichment [1] | Experiment 2-low selection pressure Average Enrichment [1] | Experiment 2-low selection pressure Rep 1 Enrichment [1] | Experiment 2-low selection pressure Rep 2 Enrichment [1] | Substance
8 | 1.70 | 0.87 | 1.28 | 0.75 | 0.59 | 0.67 | ns | 17.5 | 7.7 | 12.8 | – | – | – | – | – | – | A44T: i53 with amino acid change A44T
9 | – | – | – | – | – | – | **** | 36.2 | 29.2 | 39.5 | 2.61 | 2.69 | 2.52 | 1.43 | 1.58 | 1.28 | L73M: i53 with amino acid change L73M
10 | 1.84 | 1.91 | 1.87 | 1.22 | 0.80 | 1.01 | ** | 19.8 | 27 | 24 | – | – | – | – | – | – | i53 K6R: i53 with K6R
